Experimental data reported in article PMC12276895 (2025).

B1: nTrimer5 homotrimeric miniprotein (designed binder)
chain: SPVKRFVREVLEEAEEAYEKGDRRQFEELLWLAEWAARDANDEELEEEIREFEKEVKGSGMTRLEQLLAQGVDPFEVLREKIEKLKEIWKKYEEAKGEEKERYRDELLKLMMEVLELMVELLSRR
B2: nTrimer2 homotrimeric miniprotein (designed binder)
chain: SPVKRFVREVLEEAEEAYEKGDRRQFEELLWLAEWAARDANDEELEEEIREFEKEVKGSGKRIDEIESKLKHLEEFTTHLIKLMETMLELLKLVSDGKSDSEEYKELLEKAEEYLKQATEAAKKI
B3: nTrimer1 homotrimeric miniprotein (cb3-GSG-Trimer1) (designed binder)
chain: SPVKRFVREVLEEAEEAYEKGDRRQFEELLWLAEWAARDANDEELEEEIREFEKEVKGSGSEALEELEKALRELKKSTDELERSTEELEKNPSEDALVENNRLIVENNKIIVEVLRIIAKVLK

Biological target: prefusion biotinylated MERS-CoV EMC/2012 S ectodomain trimer (MERS-CoV EMC/2012, UniProt K9N5Q8 18-1296)
Assay: SPR

| Binder | Kd [nM] |
| --- | --- |
| B1 | 0.032 |
| B2 | 0.027 |
| B3 | 0.021 |
